PMC5562914, “Activation of an anti-bacterial toxin by the biosynthetic enzyme CysK: mechanism of binding, interaction specificity and competition with cysteine synthase” (Scientific Reports, 2017)
Several values for one entry are separate records, joined by “and”; a condition that tells them apart may be missing. Identical values can stand only once.

Key:
[1] = target: CysK from Haemophilus influenzae, His6 tag removed with thrombin (Haemophilus influenzae) (UniProt P45040); assay: other fluorescence titration; PLP fluorescence emission at 500 nm; HiCysK (300 nM) or NlCysK (860 nM) titrated with CdiA-CT; read after 20 min; binding isotherm (Eq. 1)
[2] = target: CysK from Neisseria lactamica ATCC 23970, His6-tagged (Neisseria lactamica ATCC 23970); assay: as above
[3] = target: T1, CdiA-CT toxin domain from uropathogenic Escherichia coli 536, Q0T963; assay: stopped-flow fluorescence; as a5, CysK concentration varied, 5 C; conditions: other: stopped-flow fluorescence
T1 chain: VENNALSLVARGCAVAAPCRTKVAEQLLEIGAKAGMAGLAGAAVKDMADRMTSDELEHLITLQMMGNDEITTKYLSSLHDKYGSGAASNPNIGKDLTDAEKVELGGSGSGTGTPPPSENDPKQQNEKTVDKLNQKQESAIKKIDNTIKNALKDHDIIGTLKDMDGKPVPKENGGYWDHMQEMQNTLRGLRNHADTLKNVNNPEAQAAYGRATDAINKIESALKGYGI

[4] = target: T1, CdiA-CT toxin domain from uropathogenic …; assay: stopped-flow fluorescence; PLP fluorescence, excitation 412 nm; buffer A; pseudo-first order, 200 nM EcCysK or 270 nM CdiA-CT fixed and the partner varied; 20 C; slope of kobs against concentration; conditions: other: stopped-flow fluorescence
[5] = target: T1, CdiA-CT toxin domain from uropathogenic …; assay: stopped-flow fluorescence; as a5, CysK concentration varied, 37 C; conditions: other: stopped-flow fluorescence
[6] = target: T2, E. coli CysK (EcCysK), O-acetyl-L-Ser sulfhydrylase (E. coli, UniProt P0ABK5 1-323, pyridoxal 5'-phosphate (PLP) cofactor); assay: inhibition of enzyme activity (sulfhydrylase); 6 nM EcCysK titrated with CdiA-CT; buffer A with 2 mM O-acetyl-L-Ser, 0.6 mM Na2S, 60 nM BSA; Morrison equation gives an apparent IC50, converted to Ki (Eq. 4); conditions: both partners purified
T2 construct: CysK of E. coli; the E. coli cysK gene was amplified and ligated to pCH10068 (pSH21::trxA-TEV-cysK) for the purification of untagged EcCysK; not shown: TrxA, N-terminal, cleaved
T2 sequence (looked up): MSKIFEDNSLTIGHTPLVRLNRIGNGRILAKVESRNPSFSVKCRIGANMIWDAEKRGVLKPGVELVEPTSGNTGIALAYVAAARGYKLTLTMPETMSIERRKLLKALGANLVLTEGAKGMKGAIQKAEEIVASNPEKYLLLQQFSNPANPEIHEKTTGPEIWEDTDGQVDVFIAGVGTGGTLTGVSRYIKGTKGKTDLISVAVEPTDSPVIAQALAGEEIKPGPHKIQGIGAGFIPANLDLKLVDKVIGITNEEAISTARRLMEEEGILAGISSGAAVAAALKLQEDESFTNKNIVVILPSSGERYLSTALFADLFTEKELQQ

[7] = target: T2, E. coli CysK (EcCysK), O-acetyl-L-Ser …; assay: other fluorescence titration; PLP fluorescence emission at 500 nm; 80 nM EcCysK titrated with CdiA-CT; data read after 20 min; quadratic tight-binding equation (Eq. 2); 20 C; conditions: both partners purified
[8] = target: T2, E. coli CysK (EcCysK), O-acetyl-L-Ser …; assay: other fluorescence titration; PLP fluorescence (excitation 412 nm, emission 500 nm); 1 uM EcCysK titrated with CdiA-CT to saturation (stoichiometric titration); 20 C; conditions: both partners purified
[9] = target: T2, E. coli CysK (EcCysK), O-acetyl-L-Ser …; assay: inhibition of enzyme activity (sulfhydrylase); as a3 (6 nM EcCysK titrated with CdiA-CT) in the presence of 2.4 uM CdiI; conditions: both partners purified
[10] = target: the molecule itself; assay: SEC; Ultrogel AcA44 column, 0.2 mL/min, buffer A

Q: What does the source list for “CdiA-CT toxin domain from uropathogenic Escherichia coli 536 (from UniProt Q0T963 3016-3242) (domain or fragment)”?
A: Kd [1]: 3300 nM; Kd [2]: 6400 nM

B1: E. coli CysK (EcCysK), O-acetyl-L-Ser sulfhydrylase (protein)
chain: MSKIFEDNSLTIGHTPLVRLNRIGNGRILAKVESRNPSFSVKCRIGANMIWDAEKRGVLKPGVELVEPTSGNTGIALAYVAAARGYKLTLTMPETMSIERRKLLKALGANLVLTEGAKGMKGAIQKAEEIVASNPEKYLLLQQFSNPANPEIHEKTTGPEIWEDTDGQVDVFIAGVGTGGTLTGVSRYIKGTKGKTDLISVAVEPTDSPVIAQALAGEEIKPGPHKIQGIGAGFIPANLDLKLVDKVIGITNEEAISTARRLMEEEGILAGISSGAAVAAALKLQEDESFTNKNIVVILPSSGERYLSTALFADLFTEKELQQ
Q: How did the “second-order rate constant k3/Kd (slope of kobs against CysK concentration, 5 °C)” value [3] turn out when B1 was run?
A: 0.005 ± 0.0003 µM^−1·s^−1 (5 °C)

Q: And the “second-order rate constant k3/Kd (slope of kobs against protein concentration)” value [4]?
A: 19000 ± 7000 M⁻¹ s⁻¹ and 17000 ± 7000 M⁻¹ s⁻¹

Q: And the “second-order rate constant k3/Kd (slope of kobs against CysK concentration, 37 °C)” value [5]?
A: 0.099 ± 0.019 µM^−1·s^−1 (37 °C)

B2: CdiA-CT toxin domain from uropathogenic Escherichia coli 536 (domain or fragment)
chain: VENNALSLVARGCAVAAPCRTKVAEQLLEIGAKAGMAGLAGAAVKDMADRMTSDELEHLITLQMMGNDEITTKYLSSLHDKYGSGAASNPNIGKDLTDAEKVELGGSGSGTGTPPPSENDPKQQNEKTVDKLNQKQESAIKKIDNTIKNALKDHDIIGTLKDMDGKPVPKENGGYWDHMQEMQNTLRGLRNHADTLKNVNNPEAQAAYGRATDAINKIESALKGYGI
notes: C-terminal toxin domain (CdiA-CT) of CdiA, uropathogenic E. coli 536
Q: Which IC50 [6] does the source give for B2 here?
A: 15.4 ± 0.6 nM

Q: And the Ki [6]?
A: 11 ± 0.4 nM

Q: And the Kd [7]?
A: 10 ± 11 nM

Q: And the “stoichiometry N” value [8]?
A: 1.1 CdiA-CT:EcCysK

B3: CdiA-CT in the presence of excess CdiI immunity protein (CdiA-CT:CdiI) (complex)
chain 1: VENNALSLVARGCAVAAPCRTKVAEQLLEIGAKAGMAGLAGAAVKDMADRMTSDELEHLITLQMMGNDEITTKYLSSLHDKYGSGAASNPNIGKDLTDAEKVELGGSGSGTGTPPPSENDPKQQNEKTVDKLNQKQESAIKKIDNTIKNALKDHDIIGTLKDMDGKPVPKENGGYWDHMQEMQNTLRGLRNHADTLKNVNNPEAQAAYGRATDAINKIESALKGYGI
chain 2: MITLRKLIGNINMTKEPEQQSPLELWFERIIDVPLEKLTVEDLCRAIRQNLCIDQLMPRVLEVLTKEPLAGEYYDGELIAALSTIKGEDLKDQKSTFTQIRQLINQLEPSDINDDLRKDILKINQIIV
Q: For B3, which Ki [9] is on record?
A: 6.4 ± 0.5 nM

B4: E. coli CysE (EcCysE), serine O-acetyltransferase (enzyme, UniProt P0A9D4 1-273, looked up)
chain: MSCEELEIVWNNIKAEARTLADCEPMLASFYHATLLKHENLGSALSYMLANKLSSPIMPAIAIREVVEEAYAADPEMIASAACDIQAVRTRDPAVDKYSTPLLYLKGFHALQAYRIGHWLWNQGRRALAIFLQNQVSVTFQVDIHPAAKIGRGIMLDHATGIVVGETAVIENDVSILQSVTLGGTGKSGGDRHPKIREGVMIGAGAKILGNIEVGRGAKIGAGSVVLQPVPPHTTAAGVPARIVGKPDSDKPSMDMDQHFNGINHTFEYGDGI
notes: CysE of E. coli; cysE amplified with primers CH3642/CDI235 (the fragment that also gives 'native EcCysE'); not shown: His6-thioredoxin (His6-TrxA), N-terminal, cleaved
Q: How did the “stoichiometry N” value [10] turn out when B4 was run?
A: 6
